Source: patent publication US20250043028A1 (Hoffmann-La Roche, published 2025)

B1: “2+1 IgG Crossfab”; VH/VL exchange (LC007/V9) (anti-MCSP/anti-huCD3) (bispecific antibody)
chain 1: not shown
chain 2: DIVLTQSPSSLSASLGDRVTISCSASQGIRNYLNWYQQRPDGTVKLLIYYTSSLHSGVPSRFSGSGSGTDYSLTISNLEPEDIATYYCQQYSKLPWTFGGGTKLEIKRTVAAPSVFIFPPSDEQLKSGTASVVCLLNNFYPREAKVQWKVDNALQSGNSQESVTEQDSKDSTYSLSSTLTLSKADYEKHKVYACEVTHQGLSSPVTKSFNRGEC
chain 3: DIQMTQSPSSLSASVGDRVTITCRASQDIRNYLNWYQQKPGKAPKLLIYYTSRLESGVPSRFSGSGSGTDYTLTISSLQPEDFATYYCQQGNTLPWTFGQGTKVEIKSSASTKGPSVFPLAPSSKSTSGGTAALGCLVKDYFPEPVTVSWNSGALTSGVHTFPAVLQSSGLYSLSSVVTVPSSSLGTQTYICNVNHKPSNTKVDKKVEPKSCGGGGSGGGGSEVQLQESGPGLVKPSQSLSLTCSVTGYSITSGYYWNWIRQFPGNKLEWMGYITYDGSNNYNPSLKNRISITRDTSKNQFFLKLNSVTTEDTATYYCADFDYWGQGTTLTVSSASTKGPSVFPLAPSSKSTSGGTAALGCLVKDYFPEPVTVSWNSGALTSGVHTFPAVLQSSGLYSLSSVVTVPSSSLGTQTYICNVNHKPSNTKVDKKVEPKSCDKTHTCPPCPAPEAAGGPSVFLFPPKPKDTLMISRTPEVTCVVVDVSHEDPEVKFNWYVDGVEVHNAKTKPREEQYNSTYRVVSVLTVLHQDWLNGKEYKCKVSNKALGAPIEKTISKAKGQPREPQVCTLPPSRDELTKNQVSLSCAVKGFYPSDIAVEWESNGQPENNYKTTPPVLDSDGSFFLVSKLTVDKSRWQQGNVFSCSVMHEALHNHYTQKSLSLSPGK
chain 4: EVQLVESGGGLVQPGGSLRLSCAASGYSFTGYTMNWVRQAPGKGLEWVALINPYKGVSTYNQKFKDRFTISVDKSKNTAYLQMNSLRAEDTAVYYCARSGYYGDSDWYFDVWGQGTLVTVSSASVAAPSVFIFPPSDEQLKSGTASVVCLLNNFYPREAKVQWKVDNALQSGNSQESVTEQDSKDSTYSLSSTLTLSKADYEKHKVYACEVTHQGLSSPVTKSFNRGEC
notes: vectors transfected 1:2:1:1 (second heavy chain : light chain : first heavy chain-heavy chain Crossfab : light chain Crossfab); also called 2+1 IgG Crossfab (V9)
B2: “2+1 IgG Crossfab, inverted”; CL/CH1 exchange (LC007/anti-CD3) (anti-MCSP/anti-huCD3) (bispecific antibody)
chain 1: B1 chain 2
chain 2: EVQLQESGPGLVKPSQSLSLTCSVTGYSITSGYYWNWIRQFPGNKLEWMGYITYDGSNNYNPSLKNRISITRDTSKNQFFLKLNSVTTEDTATYYCADFDYWGQGTTLTVSSASTKGPSVFPLAPSSKSTSGGTAALGCLVKDYFPEPVTVSWNSGALTSGVHTFPAVLQSSGLYSLSSVVTVPSSSLGTQTYICNVNHKPSNTKVDKKVEPKSCDKTHTCPPCPAPEAAGGPSVFLFPPKPKDTLMISRTPEVTCVVVDVSHEDPEVKFNWYVDGVEVHNAKTKPREEQYNSTYRVVSVLTVLHQDWLNGKEYKCKVSNKALGAPIEKTISKAKGQPREPQVCTLPPSRDELTKNQVSLSCAVKGFYPSDIAVEWESNGQPENNYKTTPPVLDSDGSFFLVSKLTVDKSRWQQGNVFSCSVMHEALHNHYTQKSLSLSPGK
chain 3: QAVVTQESALTTSPGETVTLTCRSSTGAVTTSNYANWVQEKPDHLFTGLIGGTNKRAPGVPARFSGSLIGDKAALTITGAQTEDEAIYFCALWYSNLWVFGGGTKLTVLSSASTKGPSVFPLAPSSKSTSGGTAALGCLVKDYFPEPVTVSWNSGALTSGVHTFPAVLQSSGLYSLSSVVTVPSSSLGTQTYICNVNHKPSNTKVDKKVEPKSC
chain 4: not shown
B3: “2+1 IgG Crossfab, inverted”; CL/CH1 exchange (LC007/V9) (anti-MCSP/anti-huCD3) (bispecific antibody)
chain 1: B1 chain 2
chain 2: B2 chain 2
chain 3: DIQMTQSPSSLSASVGDRVTITCRASQDIRNYLNWYQQKPGKAPKLLIYYTSRLESGVPSRFSGSGSGTDYTLTISSLQPEDFATYYCQQGNTLPWTFGQGTKVEIKSSASTKGPSVFPLAPSSKSTSGGTAALGCLVKDYFPEPVTVSWNSGALTSGVHTFPAVLQSSGLYSLSSVVTVPSSSLGTQTYICNVNHKPSNTKVDKKVEPKSC
chain 4: not shown
B4: “2+1 IgG Crossfab”; CL/CH1 exchange (LC007/anti-CD3) (anti-MCSP/anti-huCD3) (bispecific antibody)
chain 1: B1 chain 2
chain 2: B2 chain 2
chain 3: B2 chain 3
chain 4: not shown
B5: “1+1 IgG Crossfab light chain (LC) fusion” (CH1A1A/V9) (anti-CEA/anti-huCD3) (bispecific antibody)
chain 1: B3 chain 3
chain 2: DIQMTQSPSSLSASVGDRVTITCKASAAVGTYVAWYQQKPGKAPKLLIYSASYRKRGVPSRFSGSGSGTDFTLTISSLQPEDFATYYCHQYYTYPLFTFGQGTKLEIKRTVAAPSVFIFPPSDEQLKSGTASVVCLLNNFYPREAKVQWKVDNALQSGNSQESVTEQDSKDSTYSLSSTLTLSKADYEKHKVYACEVTHQGLSSPVTKSFNRGECGGGGSGGGGSGGGGSGGGGSEVQLVESGGGLVQPGGSLRLSCAASGYSFTGYTMNWVRQAPGKGLEWVALINPYKGVSTYNQKFKDRFTISVDKSKNTAYLQMNSLRAEDTAVYYCARSGYYGDSDWYFDVWGQGTLVTVSSASVAAPSVFIFPPSDEQLKSGTASVVCLLNNFYPREAKVQWKVDNALQSGNSQESVTEQDSKDSTYSLSSTLTLSKADYEKHKVYACEVTHQGLSSPVTKSFNRGEC
chain 3: not shown
chain 4: DKTHTCPPCPAPEAAGGPSVFLFPPKPKDTLMISRTPEVTCVVVDVSHEDPEVKFNWYVDGVEVHNAKTKPREEQYNSTYRVVSVLTVLHQDWLNGKEYKCKVSNKALGAPIEKTISKAKGQPREPQVCTLPPSRDELTKNQVSLSCAVKGFYPSDIAVEWESNGQPENNYKTTPPVLDSDGSFFLVSKLTVDKSRWQQGNVFSCSVMHEALHNHYTQKSLSLSPGK

Assays:
[1] = biological target: T1, human MCSP expressed on tumor cells (Colo-38, WM266-4, MV-3) (human, UniProt Q6UVK1 30-2322); test: cell-based or functional assay
[2] = biological target: T1, human MCSP expressed on tumor cells …; test: cell-based or functional assay; remark: listed apart in the source
[3] = biological target: T1, human MCSP expressed on tumor cells …; test: flow cytometry on WM266-4 cells
[4] = biological target: T2, human CD3 expressed on Jurkat cells (human, UniProt P07766 23-207); test: flow cytometry on Jurkat cells
T2 construct: CD3 as part of the T cell receptor complex on Jurkat cells; also called huCD3; human CD3 on cells

[5] = biological target: T3, human CEA expressed on tumor cells (LS-174T, MKN-45, MC38-huCEA) (human, UniProt P06731 35-685); test: cell-based or functional assay
T3 sequence (looked up): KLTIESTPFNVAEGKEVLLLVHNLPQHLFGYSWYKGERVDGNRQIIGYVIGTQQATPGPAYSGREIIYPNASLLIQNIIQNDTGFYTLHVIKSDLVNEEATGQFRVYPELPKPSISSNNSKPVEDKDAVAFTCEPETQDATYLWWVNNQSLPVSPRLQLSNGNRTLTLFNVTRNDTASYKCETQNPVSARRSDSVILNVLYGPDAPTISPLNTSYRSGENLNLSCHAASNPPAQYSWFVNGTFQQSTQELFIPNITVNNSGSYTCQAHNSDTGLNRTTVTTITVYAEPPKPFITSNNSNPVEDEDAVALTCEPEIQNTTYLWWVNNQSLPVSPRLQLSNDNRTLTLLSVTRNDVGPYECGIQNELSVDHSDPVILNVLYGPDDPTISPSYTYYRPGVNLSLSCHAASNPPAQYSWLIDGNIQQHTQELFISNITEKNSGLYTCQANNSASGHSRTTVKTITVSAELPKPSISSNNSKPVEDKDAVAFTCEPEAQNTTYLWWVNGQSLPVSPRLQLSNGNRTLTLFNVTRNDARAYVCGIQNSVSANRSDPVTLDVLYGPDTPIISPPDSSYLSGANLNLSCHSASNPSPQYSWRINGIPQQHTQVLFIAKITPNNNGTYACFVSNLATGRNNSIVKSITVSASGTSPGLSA

T1 sequence (Q6UVK1 30-2322): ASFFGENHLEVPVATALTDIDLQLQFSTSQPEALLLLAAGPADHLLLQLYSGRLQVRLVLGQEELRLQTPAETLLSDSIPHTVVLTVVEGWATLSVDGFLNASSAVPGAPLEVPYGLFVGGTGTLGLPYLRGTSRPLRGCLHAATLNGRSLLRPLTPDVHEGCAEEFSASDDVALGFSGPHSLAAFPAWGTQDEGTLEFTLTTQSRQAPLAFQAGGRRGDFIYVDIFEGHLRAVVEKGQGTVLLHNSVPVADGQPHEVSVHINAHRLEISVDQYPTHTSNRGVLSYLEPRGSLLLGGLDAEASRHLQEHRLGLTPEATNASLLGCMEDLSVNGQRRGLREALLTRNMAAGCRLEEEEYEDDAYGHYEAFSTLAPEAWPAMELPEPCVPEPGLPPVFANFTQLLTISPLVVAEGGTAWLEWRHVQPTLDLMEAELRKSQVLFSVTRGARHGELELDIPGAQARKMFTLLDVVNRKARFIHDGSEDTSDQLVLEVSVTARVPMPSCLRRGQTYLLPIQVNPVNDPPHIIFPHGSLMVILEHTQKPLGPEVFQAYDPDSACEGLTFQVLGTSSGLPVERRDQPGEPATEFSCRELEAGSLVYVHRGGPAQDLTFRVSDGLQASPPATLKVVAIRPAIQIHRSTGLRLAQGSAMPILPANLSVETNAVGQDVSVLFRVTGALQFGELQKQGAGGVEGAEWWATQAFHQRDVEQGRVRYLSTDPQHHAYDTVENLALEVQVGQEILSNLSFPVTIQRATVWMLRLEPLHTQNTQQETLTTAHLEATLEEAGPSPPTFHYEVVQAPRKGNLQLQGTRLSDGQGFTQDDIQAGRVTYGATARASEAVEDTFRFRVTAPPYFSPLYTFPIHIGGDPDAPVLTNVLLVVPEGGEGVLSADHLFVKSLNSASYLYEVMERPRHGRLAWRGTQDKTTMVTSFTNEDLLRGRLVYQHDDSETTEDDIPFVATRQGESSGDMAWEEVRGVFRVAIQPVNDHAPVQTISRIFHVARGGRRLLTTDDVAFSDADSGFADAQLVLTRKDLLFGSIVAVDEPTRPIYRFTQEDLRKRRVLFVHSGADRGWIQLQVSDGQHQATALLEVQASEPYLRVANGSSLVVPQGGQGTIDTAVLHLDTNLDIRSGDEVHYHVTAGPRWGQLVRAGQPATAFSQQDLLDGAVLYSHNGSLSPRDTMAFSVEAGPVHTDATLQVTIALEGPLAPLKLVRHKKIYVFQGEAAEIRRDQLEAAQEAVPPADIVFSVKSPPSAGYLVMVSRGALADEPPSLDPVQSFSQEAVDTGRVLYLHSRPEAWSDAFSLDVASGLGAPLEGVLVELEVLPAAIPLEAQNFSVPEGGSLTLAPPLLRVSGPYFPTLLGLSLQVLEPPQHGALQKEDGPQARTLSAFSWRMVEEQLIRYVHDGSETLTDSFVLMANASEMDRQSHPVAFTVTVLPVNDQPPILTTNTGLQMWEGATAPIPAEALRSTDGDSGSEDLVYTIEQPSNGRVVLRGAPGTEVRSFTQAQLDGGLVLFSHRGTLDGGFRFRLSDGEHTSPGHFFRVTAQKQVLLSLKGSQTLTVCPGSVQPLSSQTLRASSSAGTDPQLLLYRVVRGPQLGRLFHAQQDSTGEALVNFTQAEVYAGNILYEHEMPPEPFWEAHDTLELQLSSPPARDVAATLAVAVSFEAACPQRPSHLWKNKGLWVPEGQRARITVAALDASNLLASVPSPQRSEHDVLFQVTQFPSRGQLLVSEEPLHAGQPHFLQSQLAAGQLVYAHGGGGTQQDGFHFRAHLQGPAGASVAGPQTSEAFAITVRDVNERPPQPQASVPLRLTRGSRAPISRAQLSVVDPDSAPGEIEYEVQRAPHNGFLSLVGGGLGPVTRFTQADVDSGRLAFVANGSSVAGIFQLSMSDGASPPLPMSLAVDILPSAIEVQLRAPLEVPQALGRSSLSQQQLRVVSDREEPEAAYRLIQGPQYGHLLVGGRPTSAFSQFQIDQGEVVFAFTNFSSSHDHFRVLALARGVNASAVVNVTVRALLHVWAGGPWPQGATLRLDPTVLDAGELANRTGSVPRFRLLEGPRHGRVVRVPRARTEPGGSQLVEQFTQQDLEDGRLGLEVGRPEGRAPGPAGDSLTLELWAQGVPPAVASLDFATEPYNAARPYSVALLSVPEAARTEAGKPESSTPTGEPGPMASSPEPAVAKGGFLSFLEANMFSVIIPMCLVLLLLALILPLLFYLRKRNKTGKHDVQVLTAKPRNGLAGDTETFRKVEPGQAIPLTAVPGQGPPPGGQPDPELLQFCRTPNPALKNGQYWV
T2 sequence (P07766 23-207 limits assumed): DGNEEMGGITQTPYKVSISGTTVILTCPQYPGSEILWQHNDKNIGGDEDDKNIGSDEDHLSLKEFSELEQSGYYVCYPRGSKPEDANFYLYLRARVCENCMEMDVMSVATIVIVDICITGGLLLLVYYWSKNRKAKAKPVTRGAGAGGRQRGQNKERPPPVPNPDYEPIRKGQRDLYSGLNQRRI

| Binder | EC50 [pM] of T cell-mediated killing (LDH release) of MV-3 cells, human PBMCs, E:T 10:1, about 24 h [1] [pM] | EC50 [pM] of T cell-mediated killing (LDH release) of WM266-4 cells, human PBMCs, E:T 10:1, about 24 h [1] [pM] | EC50 of killing (LDH release) of MV-3 cells, human PBMCs, E:T 10:1, 21 h [2] [nM] | EC50 of killing (LDH release) of WM266-4 cells, human PBMCs, E:T 10:1, 21 h [2] [nM] | EC50 [3] [nM] | EC50 [4] [nM] | EC50 of apoptosis induction (LDH release) in LS-174T cells, human PBMCs, E:T 10:1, 28 h [5] [nM] | EC50 of apoptosis induction (LDH release) in MC38-huCEA cells, human PBMCs, E:T 10:1, 24 h [5] [nM] | EC50 of apoptosis induction (LDH release) in MKN-45 cells, human PBMCs, E:T 10:1, 28 h [5] [nM] |
| --- | --- | --- | --- | --- | --- | --- | --- | --- | --- |
| B1 | 10 | 12.4 | 0.0092 | 0.0331 | 0.95 | 1.66 | – | – | – |
| B2 | 3 | 7.1 | – | – | 3.4 | 32 | – | – | – |
| B3 | 4.1 | 3.7 | – | – | 0.57 | 6.1 | – | – | – |
| B4 | 11 | 11.3 | – | – | 3.1 | 10.3 | – | – | – |
| B5 | – | – | – | – | – | – | 1.56 | ~3.2 | 0.213 |
